Test results published in PMC4028238.

System: Influenza A virus hemagglutinin (whole virus as assayed) (Influenza A virus H3N2 A/Texas/1977 (A/Texas/1/77))
Test: competition ELISA
Details: room temperature, […] (0.5-500 nM) […] (5 nM)

Sequence	relative binding affinity (IC50 ratio vs BV02) (IC50(BV02)/IC50) (PBS)	further results
AACGCTCACTCCCCCCCCCCCCCCCAAGAACCCCCCCCCCCCCCCAGTGAGCGTT [BV35s]	7.45	
GGCTCACTAAAGGGCTGAGTCTCAAAACCGCAATACACTCAGCCCTTTAGTGAGGGTTAATTTTAAAGG [BV19c]	0.086	
CTCACTAAAGGGCTGAGTCAAACCGCAATACACTGGTTGTATGGTCGAATAAGTT [BV27]	0.116	
AACGCTCACTCCCCCCCCCCCCCCCCCACCCCCCCCCCCCCCCCCAGTGAGCGTT [BV35p]	9.88	
TCATTCTCAGTAAAGGGCTGAGAATTCAAACCGCAATACACTGGTAAAAAGTGCGGTTAAG [BV27p]	0.133	
ATTAACCCTCACTAAAGGGCTGAGTCTCAAAACCGCAATACACTGGTTGTATGGTCGAATAAGTTAA [BV32]		relative binding affinity (IC50 ratio vs BV02) (IC50(BV02)/IC50) (5' PEG200, PBS): 1.33
AATTAACCCTCACTAAAGGGCTGAGTCTCAAAACCGCAATACACTCAGCCCTTTAGTGAGGGTTAATT [BV19]	1.34	
GTCACTAAAGGGCTGAGTCAAACCGCCATACACTGGTTGTATGGCGGTTAAGTT [BV27j]	0.089	
TCCTCAGTAAAGGGCTGAGTCAAAACCGCAATACACTGGTAAAAAGTGCGGTTAG [BV27i]	0.065	
GAAATAACCTCTGATAAAAAATTTCTCCATAGCGAAGTAAGTCCATAAGGAATGCCGATTCGGCTTGC [S1]	1.1	
TCCTCAGTAAAGGGCTGAGAAACCGCAATACACTGGTAAAAAGTGCGGTTAAGTT [BV27g]	0.093	
AACGCTCACTAAACCCCCCCCCACCCCCCCCCACCCCCCCCCAAAAGTGAGCGTT [BV45a]	12.6	
AATTAACCCTCCTAAAGGGTCTGAGTCTCAAAACCGCAATACACTCAGCCCTTTAGTGAGGGTTAATT [BV19l]	0.004	
AACGCTCACTCCCCCAAGAACCCCCCCCCCCTGACCCCCCCCCCCAGTGAGCGTT [BV45d]	10.7	
AGATAAATGTCCGGGTTCGCTTCACTGATCAAACATAGACAGGTATAATTACTGCCTGAAGAAAATCC [S2]	1	
AACGCTCACTACCCCCCCCCCAACCCCCCCCCCAACCCCCCCCCCAGTGAGCGTT [BV45b]	15.1	
AATTAACCCTCACTAAAGGGCTCTCACTCAAAACCGCAATACACTCAGCCCTTTAGTGAGGGTTAATT [BV19a]	0.574	
TCCTCAGTAAAATAGCGGGGCTGAGTCAAACCGCAATACACTGGTAAAAAGTGCGGTTAAG [BV27n]	0.151	
AATTAACCCTCACTAAAGGGCTGAGTCTCAAAACCGCAATACACTGGTTGTATGGTCGAATAAGTTAA [BV02]	1	IC50 (PBS): 0.055 µM
AACCCTCACTCCGACTCACTCAAAACCGCAATACACTCAGCCAGTGAGGGTT [BV19f]	0.131	

Sequence	relative binding affinity (IC50 ratio vs BV02) (IC50(BV02)/IC50) (PBS)	further results
AATTAACCCTCACTAAAGGGCTGAGTCTCAAAACCGCAATACACTGGTTGTATGTTAATTGGGAGTGA [BV18]	7.26	
AACGCTCACTCCCCCCCCACCCCCCCCACCCCCCCCACCCCCCCCAGTGAGCGTT [BV35n]	7.23	
CACCACCACCACCACCACCACCACCACCAC [BV24b]	0.05	
TCCTCAGCAAAATAGCGGGGCTGAGTCAAACCGCAATACACTGGTAAAAAGTGCGGTTAAG [BV37b]	1	
AACGCTCACTCCCCCAAGAACCCCCCCCCCATGCACCCCCCCCCCAGTGAGCGTT [BV45e]	11.4	
ATTAACCCTCACTAAAGGGCTGAGTCTCAAAACCGCAATACACTGGTTGTATGGTCGAATAAGTTAA [BV29]		relative binding affinity (IC50 ratio vs BV02) (IC50(BV02)/IC50) (* marks (phosphorothioate) after nt 1,2,3, 3' inverted dT, PBS): 6.7
GTAAATACCTCTGAAATAATATCTCCATGACAGAGTAAGTCCATGAGAACTGACGATGCAAGTCTGTC [S3]	0.7	
GGTAGTTATAGTATATGGAAGGGGGTGTCGTATGG [C7-35M]	0.549	
TCCTCAGCAAAATAGCGGGGCTGAGTCTCAAACCGCAATACACTGGTAAAAAGTGCGGTTA [BV37c]	7.56	
TCTCAGCCCCCGCTGAGTCAAAGCGCACCCCCCCCCCCCCCCCTGCGCTTAA [BV37e]	0.995	
AAATAAGCCTGACTTAACGGGTGACTCTCAAAACCGCAATACACTCAGCCCTTTAGTGAGGGTTAATT [BV19k]	0.932	
CTCACTAAAGGGCTGAGTCAAACCGCAATACACTGGTTGTATGGTCGGTTAAGTT [BV27c]	0.771	
TCATTCTCAGTAAAGGGCTGAGTCAAACCGCAATACACTGGTAAAAAGTGCGGTTAGCGAG [BV27o]	0.116	
TTCCTCAGCAAAATAGCGGGGCTGAGCAACCGCAATACACTGGTAAAAAGTGCGGTTAAGA [BV37a]	0.874	
AACGCTCACTCCCAAGAAGAAGAACCCCCCCCCCCCCCCCAGTGAGCGTT [BV43b]	8.01	
AACCCTCACTCTCAAAACCGCAATACAGTGAGGGTT [BV19h]	0.016	
CTCACTAAAGGGCTGAGTCTCAAAACCGCAATACACTCAGCCCTTTAGTGAG [BV19g]	0.132	
AATTAACCCTCACTAAAGGGCTGATGCGGAATAAGTTAAAACCGCAGGTATACACTGGTTGTATCGAA [BV02a]	0.946	
TCCTCAGTAAAGGGCTGAGTCAAACCGCAATACACTGGTAAAAAGTGCGGTTAAG [BV27h]	0.092	
CTCACTAAAGCGCTGAGTCCCCCCCCCCCCCCCCCCCACTCAGCGCTTTAGTGAG [BV35]	1.01	

Sequence	relative binding affinity (IC50 ratio vs BV02) (IC50(BV02)/IC50) (PBS)	further results
AATTAAGCCTGACTTAAGGGGTGAGTCTCAAAACCGCAATACACTCAGCCCTTTAGTGAGGGTTAATT [BV19j]	0.071	
CTCCTCCTCCTCCTCCTCCTCCTCCTCCTC [BV24a]	0.08	
CCCCCCCCCCCCCCCCCGCGCTGAGTCCCCCCCCCCCCCCCCCCCACTCAGCGCG [BV35c]	1.16	
AACGCTCACTCCCCCACCCCCCCACCCCCCCACCCCCCCACCCCCAGTGAGCGTT [BV35m]	6.54	
AATTAACCCTCACTAAAGGGCTGAGTCTCAAAACGTTTTGAGACTCAGCCCTTTAGTGAGGGTTAATT [BV11]	0.124	
GTTTTGAGACTCAGCCCGGGCTGAGTCTCAAAACCGCAATACACTGGTTGTACAACCAGTGTATTGCG [BV13]	0.084	
AACGCTCACTCCCCCCCCCCCCCCCCCCCAGTGAGCGTT [BV35g]	0.639	
AACGCTCACTCCCCCCCCCCCCCCAAGAAGAACCCCCCCCCCCCCAGTGAGCGTT [BV42b]	14.9	
AATTAACCCTCACTAAAGCCGACTCACTCAAAACCGCAATACACTCAGCCCTTTAGTGAGGGTTAATT [BV19b]	1.26	
GTCACTAAAGGGCTGAGTCAAACCGCAATACACTGGTTGTATGGTCGGTTAAGTT [BV27f]	0.75	
AATTAACGCTCACTAAAGCCCCACCCACCCACCCACCCACCCACCCACCCCTTTAGTGAGCGTTAATT [BV36b]	0.611	
TCTCAGCCCCCGCTGAGTCAAAGCGCACCCCCCCCCCCCCCCCCCCTGCGCTTAA [BV37f]	0.495	
CCCCCCCCCGCGCTGAGTCCCCCCCCCCCCCCCCCCCACTCAGCGCGCCCCCCCC [BV35b]	0.938	
ATTAACCCTCACTAAAGGGCTGAGTCTCAAAACCGCAATACACTGGTTGTATGGTCGAATAAGTTAA [BV28]		relative binding affinity (IC50 ratio vs BV02) (IC50(BV02)/IC50) (* marks (phosphorothioate) after nt 1,2,3 and the last 3 linkages, PBS): 1.36
GGTAGTTATAGTATATGGAAGGGGCCCCCCCCCCCCCCCCGTGTCGTATGG [C7C]	15.5	
AATTAACCCTCACTAAAGGGCTGAGTCTCAAAACCGCAATACACTGGTTGTACAACCAGTGTATTGCG [BV14]	1.33	
ATTAACCCTCACTAAAGGGCTGAGTCTCAAAACCGCAATACACTGGTTGTATGGTCGAATAAGTTAA [BV31]		relative binding affinity (IC50 ratio vs BV02) (IC50(BV02)/IC50) (* marks (phosphorothioate): A*T*T*AACC*CTCACTAAAGGG*CTGAGTC*TCAAAACCG*CAATACACTG*GTTGTATG*GTCGAATAAGT*T*A*A, PBS): 7.51
AATTAACCCTGACTAAAGGGGTGAGTCTCAAAACCGCAATACACTCAGCCCTTTAGTGAGGGTTAATT [BV19i]	0.071	
AACGCTCACTCCCCCAAGAACCCCCCCCCCCCTCCCCCCCCCCCCAGTGAGCGTT [BV45c]	11.7	
GGCTGAGTCAAACCGCCTAACACTGGTACAATGGCGGTTAAGTT [BV27m]	0.012	
